B1: Y22S (designed binder)
chain: MTLQELLREEALRRAEAEAFRSALELLAEKFPEQKEYLLDLAEEIESQIRSLSGVDVEDVRKFLDKEWAWVKELLAEHPAELAEVEAARAARLAELRAEVEAKVAA
B2: I49D (designed binder)
chain: B1 chain with S22Y, I49D
B3: S53Q (designed binder)
chain: B1 chain with S22Y, S53Q
B4: L82N (designed binder)
chain: B1 chain with S22Y, L82N
B5: Y22N (designed binder)
chain: B1 chain with S22N
B6: T2P (designed binder)
chain: B1 chain with T2P, S22Y
B7: A83Y (designed binder)
chain: B1 chain with S22Y, A83Y
B8: R13G (designed binder)
chain: B1 chain with R13G, S22Y
B9: A76C (designed binder)
chain: B1 chain with S22Y, A76C
B10: G54M (designed binder)
chain: B1 chain with S22Y, G54M
B11: H78F (designed binder)
chain: B1 chain with S22Y, H78F
B12: E58N (designed binder)
chain: B1 chain with S22Y, E58N
B13: E84M (designed binder)
chain: B1 chain with S22Y, E84M
B14: E9I (designed binder)
chain: B1 chain with E9I, S22Y
B15: R89Y (designed binder)
chain: B1 chain with S22Y, R89Y
B16: V100E (designed binder)
chain: B1 chain with S22Y, V100E
B17: I45G (designed binder)
chain: B1 chain with S22Y, I45G
B18: E18T (designed binder)
chain: B1 chain with E18T, S22Y
B19: F31P (designed binder)
chain: B1 chain with S22Y, F31P
B20: A106T (designed binder)
chain: B1 chain with S22Y, A106T
B21: A11D (designed binder)
chain: B1 chain with A11D, S22Y
B22: A28D (designed binder)
chain: B1 chain with S22Y, A28D
B23: L6T (designed binder)
chain: B1 chain with L6T, S22Y
B24: A76E (designed binder)
chain: B1 chain with S22Y, A76E
B25: E10T (designed binder)
chain: B1 chain with E10T, S22Y
B26: L93K (designed binder)
chain: B1 chain with S22Y, L93K
B27: R14H (designed binder)
chain: B1 chain with R14H, S22Y
B28: V104A (designed binder)
chain: B1 chain with S22Y, V104A
B29: A94R (designed binder)
chain: B1 chain with S22Y, A94R
B30: E86I (designed binder)
chain: B1 chain with S22Y, E86I
B31: V104H (designed binder)
chain: B1 chain with S22Y, V104H
B32: E29K (designed binder)
chain: B1 chain with S22Y, E29K
B33: R89M (designed binder)
chain: B1 chain with S22Y, R89M
B34: A91I (designed binder)
chain: B1 chain with S22Y, A91I
B35: L12H (designed binder)
chain: B1 chain with L12H, S22Y
B36: E58L (designed binder)
chain: B1 chain with S22Y, E58L
B37: A88F (designed binder)
chain: B1 chain with S22Y, A88F
B38: Q34F (designed binder)
chain: B1 chain with S22Y, Q34F
B39: L7P (designed binder)
chain: B1 chain with L7P, S22Y
B40: E46Q (designed binder)
chain: B1 chain with S22Y, E46Q
B41: E101P (designed binder)
chain: B1 chain with S22Y, E101P
B42: A19T (designed binder)
chain: B1 chain with A19T, S22Y
B43: E58I (designed binder)
chain: B1 chain with S22Y, E58I
B44: F63C (designed binder)
chain: B1 chain with S22Y, F63C
B45: E16T (designed binder)
chain: B1 chain with E16T, S22Y
B46: V55A (designed binder)
chain: B1 chain with S22Y, V55A
B47: F31M (designed binder)
chain: B1 chain with S22Y, F31M
B48: K66N (designed binder)
chain: B1 chain with S22Y, K66N
B49: E84L (designed binder)
chain: B1 chain with S22Y, E84L
B50: A80R (designed binder)
chain: B1 chain with S22Y, A80R
B51: Y22C (designed binder)
chain: B1 chain with S22C
B52: E44M (designed binder)
chain: B1 chain with S22Y, E44M
B53: R14G (designed binder)
chain: B1 chain with R14G, S22Y
B54: Y22K (designed binder)
chain: B1 chain with S22K
B55: D59I (designed binder)
chain: B1 chain with S22Y, D59I

Numbering of substitutions follows the chain as printed. In names and notes the source's numbering stands.

In this assay the target is T1, TNFR1 (Homo sapiens, UniProt P19438).
T1 chain: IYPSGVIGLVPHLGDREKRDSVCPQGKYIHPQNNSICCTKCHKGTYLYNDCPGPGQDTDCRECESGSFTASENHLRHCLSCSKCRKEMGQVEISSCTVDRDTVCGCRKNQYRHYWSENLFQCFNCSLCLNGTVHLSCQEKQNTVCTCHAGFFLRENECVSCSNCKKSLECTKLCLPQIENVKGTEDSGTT
As to the kind of experiment: yeast display SC50.
As for B1, the “apparent Kd (screen)” value was 0.79 nM.

Turning to B2, the “apparent Kd (screen)” value is 12.5 nM.

With B3, the “apparent Kd (screen)” value came out at 0.653 nM.

B4: the “apparent Kd (screen)” value turned out to be 1.69 nM.

Consider B5, for which the “apparent Kd (screen)” value is 0.593 nM.

With B6, the “apparent Kd (screen)” value was 0.718 nM.

Turning to B7, the “apparent Kd (screen)” value amounted to 0.718 nM.

On to B8, for which the “apparent Kd (screen)” value was 0.252 nM.

In the case of B9, the “apparent Kd (screen)” value is 0.539 nM.

For B10, the “apparent Kd (screen)” value was found to be 12.5 nM.

Take B11: the “apparent Kd (screen)” value came out at 0.446 nM.

With B12, the “apparent Kd (screen)” value stood at 0.49 nM.

As for B13, the “apparent Kd (screen)” value is 0.956 nM.

Regarding B14, the “apparent Kd (screen)” value was found to be 0.79 nM.

For B15, the “apparent Kd (screen)” value came out at 0.539 nM.

On to B16, for which the “apparent Kd (screen)” value worked out at 0.539 nM.

B17: the “apparent Kd (screen)” value was determined as 8.56 nM.

For the molecule B18, the “apparent Kd (screen)” value was found to be 0.593 nM.

In the case of B19, the “apparent Kd (screen)” value was determined as 7.78 nM.

In the case of B20, the “apparent Kd (screen)” value is 1.05 nM.

As for B21, the “apparent Kd (screen)” value was 0.593 nM.

Take B22: the “apparent Kd (screen)” value came out at 18.3 nM.

For the molecule B23, the “apparent Kd (screen)” value turned out to be 10.4 nM.

Consider B24, for which the “apparent Kd (screen)” value was found to be 0.593 nM.

As for B25, the “apparent Kd (screen)” value is 5.31 nM.

As for B26, the “apparent Kd (screen)” value amounted to 0.718 nM.

As to B27, the “apparent Kd (screen)” value came out at 0.49 nM.

On to B28, for which the “apparent Kd (screen)” value was 0.653 nM.

On to B29, for which the “apparent Kd (screen)” value came to 0.869 nM.

B30: the “apparent Kd (screen)” value came to 0.718 nM.

Regarding B31, the “apparent Kd (screen)” value was 1.16 nM.

With B32, the “apparent Kd (screen)” value stood at 0.49 nM.

Turning to B33, the “apparent Kd (screen)” value was found to be 0.869 nM.

For B34, the “apparent Kd (screen)” value was found to be 0.956 nM.

Consider B35, for which the “apparent Kd (screen)” value was 0.956 nM.

Regarding B36, the “apparent Kd (screen)” value came to 0.446 nM.

Turning to B37, the “apparent Kd (screen)” value came out at 0.718 nM.

As to B38, the “apparent Kd (screen)” value was 0.79 nM.

B39: the “apparent Kd (screen)” value turned out to be 0.79 nM.

On to B40, for which the “apparent Kd (screen)” value worked out at 0.49 nM.

With B41, the “apparent Kd (screen)” value came to 0.446 nM.

For B42, the “apparent Kd (screen)” value is 0.718 nM.

Take B43: the “apparent Kd (screen)” value was 0.593 nM.

As for B44, the “apparent Kd (screen)” value is 6.43 nM.

For B45, the “apparent Kd (screen)” value came out at 0.539 nM.

For the molecule B46, the “apparent Kd (screen)” value amounted to 1.16 nM.

Regarding B47, the “apparent Kd (screen)” value was 0.539 nM.

With B48, the “apparent Kd (screen)” value worked out at 0.653 nM.

As for B49, the “apparent Kd (screen)” value worked out at 0.49 nM.

On to B50, for which the “apparent Kd (screen)” value came to 0.593 nM.

Regarding B51, the “apparent Kd (screen)” value was 0.446 nM.

In the case of B52, the “apparent Kd (screen)” value amounted to 1.69 nM.

Consider B53, for which the “apparent Kd (screen)” value turned out to be 0.539 nM.

As for B54, the “apparent Kd (screen)” value stood at 0.49 nM.

On to B55, for which the “apparent Kd (screen)” value is 0.653 nM.

Values taken from publication PMC12416549 (2024).
